In assay [1] the target is HIV-1 AD8 gp120, wild type (HIV-1 (AD8 strain)). Put plainly: 35S pulse-chase labelling, immunoprecipitation, gp120-shedding index.
The target of assay [2] is HIV-1 AD8 Env ΔN139INN/K601N (HIV-1 (AD8 strain)). Kind of assay: cell-based or functional assay.
In assay [3] the target is HIV-1 AD8 envelope glycoprotein (Env), wild type (HIV-1 (AD8 strain)). Kind of assay: cell-based or functional assay.
The test system of assay [4] is HIV-1AD8 WL/KH virus. Kind of assay: Neutralization assay in TZM-bl cells, WL/KH virus. In kind it is cell-based.
The test system of assay [5] is HIV-1AD8 WL/KH/DE virus. Put plainly: Neutralization assay in TZM-bl cells, WL/KH/DE virus. The format is cell-based.
The test system of assay [6] is HIV-1. The settings on record: monotherapy, HIV-1 infected individuals; cited from earlier work.
The target in assay [7] is HIV-1 AD8 gp120 T138N (HIV-1 (AD8 strain)). Put plainly: 35S pulse-chase labelling, immunoprecipitation, gp120-shedding index.

The substance HIV-1 AD8 gp41 K601N had a gp120 shedding into culture supernatant, fold with respect to WT in assay [1] of 4.4 fold.
C34 fusion inhibitor peptide: the IC50, inhibition of Env-mediated cell-cell fusion by C34 (luciferase) in assay [2] and in assay [3] was 100 nM throughout.
For maraviroc, the “neutralization compared to the WT” value in assay [4] and in assay [5] was “to similar extents” each time.
With “Ibalizumab: αCD4bs antibody used as monotherapy of HIV-1 infected individuals”, the viral load entry in assay [6] is on record as “transient drop in viral load to nadir levels followed by a rebound in viral titre”.
In turn, HIV-1 AD8 gp41 K601D displayed an improvement of gp120-gp41 association, fold with respect to K601D in assay [7] of 2 fold. Also, the gp120 shedding into culture supernatant, fold with respect to WT in assay [1] stood at 6.8 fold.
